Results on one compound are retold here after patent US9176064B2, “Bisubstrate fluorescent probes for protein kinase CK2” (University of Tartu, priority 2012, dated 2015).

Among the targets are TIE2 (Homo sapiens, UniProt Q02763); YES1 (Homo sapiens, UniProt P07947); TTBK2 (Homo sapiens, UniProt Q6IQ55); PAK2 (Homo sapiens, UniProt Q13177); EPH-A2 (Homo sapiens, UniProt P29317); DAPK1 (Homo sapiens, UniProt P53355); p38a MAPK (Homo sapiens, UniProt Q16539); TrkA (Homo sapiens, UniProt P04629); MARK2 (Homo sapiens, UniProt Q7KZI7); CK1δ (Homo sapiens, UniProt P48730); JNK1 (Homo sapiens, UniProt P45983); BTK (Homo sapiens, UniProt Q06187); CDK9-Cyclin T1 (Homo sapiens, UniProt P50750).

Assay in all cases: Kinase panel residual activity
Assay type in all cases: biochemical
What all share (conditions): compound at 1 micromolar

For another data set, the target named is T1, TAK1 (Homo sapiens, UniProt O43318).
T1 sequence (O43318 1-303 limits assumed): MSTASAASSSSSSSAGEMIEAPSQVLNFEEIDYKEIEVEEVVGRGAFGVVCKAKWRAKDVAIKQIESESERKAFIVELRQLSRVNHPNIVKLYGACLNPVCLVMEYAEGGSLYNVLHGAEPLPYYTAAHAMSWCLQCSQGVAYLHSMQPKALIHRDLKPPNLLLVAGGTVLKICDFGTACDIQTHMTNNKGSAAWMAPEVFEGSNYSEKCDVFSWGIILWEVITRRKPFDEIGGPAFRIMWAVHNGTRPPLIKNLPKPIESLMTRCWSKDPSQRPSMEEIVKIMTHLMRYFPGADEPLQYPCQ

In the next data set the target is T2, MKK6 (Homo sapiens, UniProt P52564).
T2 sequence (P52564 1-334): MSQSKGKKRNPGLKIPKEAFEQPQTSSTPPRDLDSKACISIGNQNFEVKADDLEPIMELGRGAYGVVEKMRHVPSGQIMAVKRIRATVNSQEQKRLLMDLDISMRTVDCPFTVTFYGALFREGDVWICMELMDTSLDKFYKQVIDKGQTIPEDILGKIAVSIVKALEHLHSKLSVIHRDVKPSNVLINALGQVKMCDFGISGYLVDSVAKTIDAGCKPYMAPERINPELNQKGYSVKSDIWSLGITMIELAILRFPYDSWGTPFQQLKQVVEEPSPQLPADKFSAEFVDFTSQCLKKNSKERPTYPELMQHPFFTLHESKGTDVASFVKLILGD

For the next data set, the target named is T3, IRAK4 (Homo sapiens, UniProt Q9NWZ3).
T3 sequence (Q9NWZ3 1-460): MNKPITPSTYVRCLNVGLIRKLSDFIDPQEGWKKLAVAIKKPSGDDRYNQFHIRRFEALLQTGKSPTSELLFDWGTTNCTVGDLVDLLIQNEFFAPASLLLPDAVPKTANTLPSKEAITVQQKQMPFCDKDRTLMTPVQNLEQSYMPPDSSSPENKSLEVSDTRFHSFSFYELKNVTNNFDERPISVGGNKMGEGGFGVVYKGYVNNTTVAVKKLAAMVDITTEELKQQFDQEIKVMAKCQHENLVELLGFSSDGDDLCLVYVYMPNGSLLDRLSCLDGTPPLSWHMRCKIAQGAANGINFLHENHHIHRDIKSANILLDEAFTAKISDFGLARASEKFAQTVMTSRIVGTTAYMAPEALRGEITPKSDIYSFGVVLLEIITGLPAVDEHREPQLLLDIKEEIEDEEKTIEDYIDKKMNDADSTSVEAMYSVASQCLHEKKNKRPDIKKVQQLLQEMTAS

Another data set addresses T4, EPH-B3 (Homo sapiens, UniProt P54753).
T4 sequence (P54753 34-998): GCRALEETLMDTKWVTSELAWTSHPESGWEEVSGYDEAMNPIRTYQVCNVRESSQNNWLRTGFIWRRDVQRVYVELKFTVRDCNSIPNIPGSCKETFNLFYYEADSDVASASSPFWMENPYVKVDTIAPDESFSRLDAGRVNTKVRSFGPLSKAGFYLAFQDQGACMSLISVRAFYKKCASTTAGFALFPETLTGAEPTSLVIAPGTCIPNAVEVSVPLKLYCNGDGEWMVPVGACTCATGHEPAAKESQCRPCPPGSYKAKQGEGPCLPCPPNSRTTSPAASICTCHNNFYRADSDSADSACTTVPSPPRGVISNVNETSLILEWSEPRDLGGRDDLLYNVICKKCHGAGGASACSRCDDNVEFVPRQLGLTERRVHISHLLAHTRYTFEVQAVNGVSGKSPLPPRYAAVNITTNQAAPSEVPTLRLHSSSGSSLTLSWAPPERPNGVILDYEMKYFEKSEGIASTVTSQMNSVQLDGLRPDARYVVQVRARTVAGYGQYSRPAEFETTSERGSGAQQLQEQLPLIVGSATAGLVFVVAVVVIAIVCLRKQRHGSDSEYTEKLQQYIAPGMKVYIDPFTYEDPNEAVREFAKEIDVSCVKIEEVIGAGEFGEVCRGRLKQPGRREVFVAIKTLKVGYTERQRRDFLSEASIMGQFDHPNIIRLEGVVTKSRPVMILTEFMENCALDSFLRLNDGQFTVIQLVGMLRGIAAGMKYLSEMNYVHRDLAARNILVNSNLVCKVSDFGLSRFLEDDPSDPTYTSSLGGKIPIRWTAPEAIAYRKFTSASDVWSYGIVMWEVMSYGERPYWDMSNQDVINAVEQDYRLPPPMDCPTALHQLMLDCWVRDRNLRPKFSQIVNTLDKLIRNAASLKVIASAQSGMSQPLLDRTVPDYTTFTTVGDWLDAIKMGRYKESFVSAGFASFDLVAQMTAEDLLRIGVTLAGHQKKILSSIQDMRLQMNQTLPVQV

Where a SMILES comes first, the peptide text is derived from it. [ ]: non-standard residue; d: D form. The star is where a group is joined. X1 = O=C(CCCCCCCn1cnc2c(Br)c(Br)c(Br)c(Br)c21)*

Chain of TTBK2 (Q6IQ55 whole entry, species assumed): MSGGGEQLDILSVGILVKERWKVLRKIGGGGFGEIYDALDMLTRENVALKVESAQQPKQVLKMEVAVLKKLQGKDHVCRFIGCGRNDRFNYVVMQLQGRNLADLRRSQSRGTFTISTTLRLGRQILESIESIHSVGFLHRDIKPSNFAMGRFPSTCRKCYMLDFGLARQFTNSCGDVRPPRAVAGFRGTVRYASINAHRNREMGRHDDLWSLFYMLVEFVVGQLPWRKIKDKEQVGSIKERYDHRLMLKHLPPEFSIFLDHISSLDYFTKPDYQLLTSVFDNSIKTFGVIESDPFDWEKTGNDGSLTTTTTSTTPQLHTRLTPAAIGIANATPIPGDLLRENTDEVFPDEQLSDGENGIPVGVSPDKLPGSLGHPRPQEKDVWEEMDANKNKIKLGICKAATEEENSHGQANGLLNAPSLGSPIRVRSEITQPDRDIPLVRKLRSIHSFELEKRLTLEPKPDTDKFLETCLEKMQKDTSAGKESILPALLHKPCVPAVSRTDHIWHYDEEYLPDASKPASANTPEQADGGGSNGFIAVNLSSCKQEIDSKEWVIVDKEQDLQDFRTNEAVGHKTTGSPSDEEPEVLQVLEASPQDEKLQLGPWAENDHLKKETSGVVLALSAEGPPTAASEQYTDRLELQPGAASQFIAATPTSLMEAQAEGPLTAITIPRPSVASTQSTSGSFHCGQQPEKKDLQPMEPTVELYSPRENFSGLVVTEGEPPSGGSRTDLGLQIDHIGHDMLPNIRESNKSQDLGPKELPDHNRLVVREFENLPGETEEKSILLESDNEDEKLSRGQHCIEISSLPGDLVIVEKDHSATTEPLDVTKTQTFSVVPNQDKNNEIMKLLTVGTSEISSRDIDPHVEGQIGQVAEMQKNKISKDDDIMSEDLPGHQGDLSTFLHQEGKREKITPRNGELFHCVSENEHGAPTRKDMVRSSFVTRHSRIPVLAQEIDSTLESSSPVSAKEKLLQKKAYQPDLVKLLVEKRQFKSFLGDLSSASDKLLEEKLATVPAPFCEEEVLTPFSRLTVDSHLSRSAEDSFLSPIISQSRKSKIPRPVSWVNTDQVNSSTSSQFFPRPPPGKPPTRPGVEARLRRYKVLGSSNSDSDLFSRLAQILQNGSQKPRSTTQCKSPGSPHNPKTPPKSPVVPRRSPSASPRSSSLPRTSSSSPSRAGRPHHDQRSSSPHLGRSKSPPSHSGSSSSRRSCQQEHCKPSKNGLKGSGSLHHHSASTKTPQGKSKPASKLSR
Chain of CK1δ (P48730 whole entry): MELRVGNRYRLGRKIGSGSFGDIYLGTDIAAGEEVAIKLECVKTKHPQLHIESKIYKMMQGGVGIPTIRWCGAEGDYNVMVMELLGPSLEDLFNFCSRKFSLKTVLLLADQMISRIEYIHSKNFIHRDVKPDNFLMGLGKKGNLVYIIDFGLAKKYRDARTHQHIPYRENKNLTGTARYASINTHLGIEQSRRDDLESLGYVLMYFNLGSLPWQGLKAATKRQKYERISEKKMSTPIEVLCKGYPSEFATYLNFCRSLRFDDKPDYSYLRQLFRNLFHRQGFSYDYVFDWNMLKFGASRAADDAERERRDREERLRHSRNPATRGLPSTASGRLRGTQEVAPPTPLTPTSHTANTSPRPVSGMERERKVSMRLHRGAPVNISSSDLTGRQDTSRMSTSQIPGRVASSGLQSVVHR
Chain of TIE2 (Q02763 23-1124, species assumed): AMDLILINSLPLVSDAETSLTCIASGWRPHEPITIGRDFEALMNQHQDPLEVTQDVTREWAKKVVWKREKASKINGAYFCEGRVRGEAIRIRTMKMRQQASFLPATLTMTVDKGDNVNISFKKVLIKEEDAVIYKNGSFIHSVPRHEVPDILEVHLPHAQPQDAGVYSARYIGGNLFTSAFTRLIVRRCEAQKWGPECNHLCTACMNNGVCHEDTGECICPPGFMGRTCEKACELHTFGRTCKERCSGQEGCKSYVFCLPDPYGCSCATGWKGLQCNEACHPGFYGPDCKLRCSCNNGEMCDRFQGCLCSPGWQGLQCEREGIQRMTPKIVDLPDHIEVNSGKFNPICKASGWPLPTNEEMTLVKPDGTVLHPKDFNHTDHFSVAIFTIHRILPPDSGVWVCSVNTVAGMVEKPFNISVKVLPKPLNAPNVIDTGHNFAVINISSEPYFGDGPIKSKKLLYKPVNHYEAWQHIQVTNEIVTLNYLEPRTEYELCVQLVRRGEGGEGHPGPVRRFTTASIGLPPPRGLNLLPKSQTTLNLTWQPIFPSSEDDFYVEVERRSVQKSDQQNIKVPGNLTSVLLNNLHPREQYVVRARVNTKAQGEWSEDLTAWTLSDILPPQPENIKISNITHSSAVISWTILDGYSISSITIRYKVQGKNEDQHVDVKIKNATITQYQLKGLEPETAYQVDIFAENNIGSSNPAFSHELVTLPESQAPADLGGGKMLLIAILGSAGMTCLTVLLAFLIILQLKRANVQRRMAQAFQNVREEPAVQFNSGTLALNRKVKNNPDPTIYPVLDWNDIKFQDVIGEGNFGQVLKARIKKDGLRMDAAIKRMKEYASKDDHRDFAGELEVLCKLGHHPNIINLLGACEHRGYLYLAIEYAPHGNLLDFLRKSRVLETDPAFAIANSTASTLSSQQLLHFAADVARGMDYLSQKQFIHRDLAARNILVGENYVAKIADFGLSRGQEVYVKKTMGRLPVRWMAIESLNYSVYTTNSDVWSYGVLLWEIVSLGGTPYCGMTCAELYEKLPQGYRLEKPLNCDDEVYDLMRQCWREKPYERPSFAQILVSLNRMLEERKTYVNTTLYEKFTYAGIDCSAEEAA
Chain of YES1 (P07947 whole entry, species assumed): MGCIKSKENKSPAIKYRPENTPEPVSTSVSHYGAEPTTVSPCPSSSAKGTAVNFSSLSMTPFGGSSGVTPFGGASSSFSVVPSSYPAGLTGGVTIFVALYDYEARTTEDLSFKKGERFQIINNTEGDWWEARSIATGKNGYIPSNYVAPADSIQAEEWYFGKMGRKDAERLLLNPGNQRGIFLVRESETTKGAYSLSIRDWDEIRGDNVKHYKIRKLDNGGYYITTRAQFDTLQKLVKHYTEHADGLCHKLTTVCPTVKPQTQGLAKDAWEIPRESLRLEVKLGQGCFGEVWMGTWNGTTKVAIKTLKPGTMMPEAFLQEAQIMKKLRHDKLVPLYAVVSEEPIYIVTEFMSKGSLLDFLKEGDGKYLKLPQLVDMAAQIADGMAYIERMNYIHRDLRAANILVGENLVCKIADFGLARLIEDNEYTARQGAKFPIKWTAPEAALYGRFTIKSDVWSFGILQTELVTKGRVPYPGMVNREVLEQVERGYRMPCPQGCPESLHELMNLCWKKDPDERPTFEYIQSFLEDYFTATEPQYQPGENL
Chain of TrkA (P04629 33-796, species assumed): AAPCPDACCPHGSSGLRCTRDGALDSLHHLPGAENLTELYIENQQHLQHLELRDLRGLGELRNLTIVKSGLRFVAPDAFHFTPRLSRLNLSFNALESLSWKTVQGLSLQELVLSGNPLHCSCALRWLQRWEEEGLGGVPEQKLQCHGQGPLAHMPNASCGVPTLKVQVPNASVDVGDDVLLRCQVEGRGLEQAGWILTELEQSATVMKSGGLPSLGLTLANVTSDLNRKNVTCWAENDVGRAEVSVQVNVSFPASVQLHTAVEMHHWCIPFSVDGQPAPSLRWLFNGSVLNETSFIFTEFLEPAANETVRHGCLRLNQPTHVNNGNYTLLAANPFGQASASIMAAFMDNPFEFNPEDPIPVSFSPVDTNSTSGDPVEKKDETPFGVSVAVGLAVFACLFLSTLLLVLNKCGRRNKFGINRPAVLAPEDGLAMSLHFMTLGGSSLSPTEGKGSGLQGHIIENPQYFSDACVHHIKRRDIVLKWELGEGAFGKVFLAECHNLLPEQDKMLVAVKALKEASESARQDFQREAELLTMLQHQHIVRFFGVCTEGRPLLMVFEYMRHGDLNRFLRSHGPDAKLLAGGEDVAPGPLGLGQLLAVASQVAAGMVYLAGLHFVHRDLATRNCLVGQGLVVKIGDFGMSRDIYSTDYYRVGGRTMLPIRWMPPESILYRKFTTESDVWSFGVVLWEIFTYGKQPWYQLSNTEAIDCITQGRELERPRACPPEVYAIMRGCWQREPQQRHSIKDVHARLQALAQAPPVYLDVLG
Chain of BTK (Q06187 whole entry, species assumed): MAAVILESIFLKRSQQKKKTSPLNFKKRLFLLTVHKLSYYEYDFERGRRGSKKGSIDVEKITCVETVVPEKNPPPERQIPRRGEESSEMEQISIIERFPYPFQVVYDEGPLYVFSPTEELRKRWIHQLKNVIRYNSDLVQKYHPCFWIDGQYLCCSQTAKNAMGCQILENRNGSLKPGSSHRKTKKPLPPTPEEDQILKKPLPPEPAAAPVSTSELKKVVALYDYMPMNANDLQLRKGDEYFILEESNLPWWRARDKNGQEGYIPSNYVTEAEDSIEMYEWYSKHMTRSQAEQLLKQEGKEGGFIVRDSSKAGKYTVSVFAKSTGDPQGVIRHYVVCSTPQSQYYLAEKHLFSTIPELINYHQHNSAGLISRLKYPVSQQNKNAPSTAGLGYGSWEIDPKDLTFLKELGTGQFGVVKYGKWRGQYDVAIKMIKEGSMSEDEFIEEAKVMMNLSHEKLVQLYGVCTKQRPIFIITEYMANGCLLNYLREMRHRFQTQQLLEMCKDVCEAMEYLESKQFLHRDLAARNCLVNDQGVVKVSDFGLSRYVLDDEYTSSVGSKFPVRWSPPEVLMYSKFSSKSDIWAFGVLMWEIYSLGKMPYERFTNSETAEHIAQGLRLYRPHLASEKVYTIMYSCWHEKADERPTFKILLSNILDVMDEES

What is called remaining activity is the signal under treatment as a percentage of the control signal. Turning to `NCCCC[C@H](NC(=O)[C@H](CC(=O)O)NC(=O)[C@H](CC(=O)O)NC(=O)[C@H](CC(=O)O)NC(=O)[C@H](CC(=O)O)NC(=O)[C@H](CC(=O)O)NC(=O)[C@@H](CC(=O)O)NC(=O)CCCCCCCn1cnc2c(Br)c(Br)c(Br)c(Br)c21)C(=O)O` [TBBI-OcA-(D-Asp)-(L-Asp)5-(L-Lys)-OH] (X1-[dD]DDDDDK-OH), the remaining activity at 1 µM with TIE2 was 105%; with TAK1 it was 62%; with MKK6, 82%; with YES1, 103%; with TTBK2 it was 95%; with IRAK4 it was 118%. Also, the remaining activity at 1 µM with PAK2 was found to be 102%; in the data set with EPH-A2 it was 80%; with DAPK1, 84%; with p38a MAPK, 116%; with TrkA, 111%; with MARK2, 66%. Further, the remaining activity at 1 µM with EPH-B3 stood at 98%; with CK1δ, 49%; with JNK1, 103%; with BTK, 80%; in the data set with CDK9-Cyclin T1, 65%.
